Results reported in patent US5863889A, “ICAM-1/LFA-1 short-chain peptides and method of using same” (The University of Kansas, priority 1996, dated 1999).

Key:
LFA-1 (CD11a) = target: T1, LFA-1 (CD11a) (Homo sapiens, UniProt P20701); assay: Antibody binding assay (FACS): anti-LFA-1 mAb (mouse IgG anti-human CD11a) binding to Molt3 T-cells after peptide incubation; type: cell-based; settings: for Fluorescence, % change from control of the medium fluorescence intensity: mAb CD11a, average ± standard error of runs
T1 construct: host or cells: Molt3 human T-cell leukemia line
Experimental: A 1 ml quantity of the Molt3 inoculum was warmed to 37° C. and transferred by pipette into about 25 ml of a growth culture medium including RPMI 1640 lymphocyte growth medium (Fisher Scientific of St. Louis, Miss.) mixed with 10% by volume fetal calf serum, 100 units/ml penicillin, 100 μg/ml streptomycin and 2 mM glutamine. The inoculated culture was incubated for three to four days at 37° C. under a normal atmosphere having about 5% CO2 added thereto. This culture was capable of being maintained indefinitely by siphoning away the top (non-cell containing) layer and adding 50 ml (or more) of growth culture medium at intervals of three to four days.
An aqueous buffer solution including Dulbecco's phosphate buffered saline and bovine serum albumin ("-PBS/BSA solution") was prepared for use, and included a mixture of 200 mg KH2 PO4, 1.15 g Na2 HPO4, 100 mg CaCl2, 200 mg KCl, 100 mg MgCl2.6H2 O, 8 g NaCl, with distilled water added to a final 1 liter volume at room temperature, thus, forming a "PBS" solution of pH 7.4 to which was added 0.5% by weight bovine serum albumin.
An aliquot of about 7 ml was removed from the incubated culture medium and subjected to washing with the PBS/BSA solution. The washing procedure was initiated by placing the aliquot in a centrifuge (Model GT422 from Jouan, distributed Piruscio & Assoc. of Manchester, Miss.) at 1400 rpm for 6.5 minutes to separate the cells from the growth medium. The supernatant fluid was decanted, a 5 ml portion of PBS/BSA solution was transferred by pipette into the pellet, and the mixture was again centrifuged as before. The resulting supernatant fluid was decanted and the cells from the pellet were resuspended in PBS/BSA solution at a titer of about 1×10^6 cells/ml. A 500 μl portion of the solution containing the resuspended cells was placed in a microcentrifuge (Marathon 13K/M from Fisher Scientific of St. Louis, Miss.) at 3500 rpm for six minutes, to provide a washed pellet.
[…] The cells were incubated with the peptide cocktail at 37° C. for 45 minutes.
After incubation with the peptide cocktail, several antibodies were successively mixed into the incubated solution. A 75 μl portion of anti-IgM solution (a mixture of 10 μl of goat anti-human IgM stock purchased from Jackson Immuno Research of Westgrove, Pa.; and 65 μl of PBS/BSA solution) was added to the peptide cocktail for blocking of nonspecific binding of the secondary antibody. The resulting mixture was incubated for 10 minutes on ice. About 0.1 μg of a primary antibody including mouse IgG anti-human CD11a (purified according to conventional protocols at the University of Kansas Department of Pharmacology and Toxicology from an American Type Culture hybridoma cell line having Catalogue Number HB-202) was next stirred into the mixture, which was then incubated for 30 minutes at room temperature. The incubated mixture was placed in a microcentrifuge at 3500 rpm for six minutes to remove the cells from the mixture, and the cell pellet was washed two times by adding 500 μl aliquots of PBS/BSA solution and microfuging to remove non-bound antibodies from the cells as before. The resulting washed pellet was resuspended in 100 μl of a secondary antibody cocktail including 5 μl of fluorescein isothiocyanate ("FITC") labeled goat anti-mouse IgG (from CALTAG of South San Francisco, Calif.) and 95 μl of PBS/BSA solution. The resulting solution was incubated for 30 minutes at room temperature in the dark.
The incubated solution including the secondary antibody cocktail was microfuged at 3500 rpm for six minutes to remove the cells from the solution, and the cell pellet was washed two times with 500 μl portions of PBS/BSA solution, as before, to remove unbound antibodies. […]

Molt3 cells [1] = assay: Homotypic adhesion assay (MDHC-induced clumping of T-cells); type: cell-based, human; set-up: key to Homotypic Adhesion Amount: Any sample having a score of "+++" or "++++" is considered to have a significant ability to modulate T-cell binding interaction; Any sample having a score of "+++" or "++++" is considered to have a significant ability to modulate T-cell binding interaction; settings: 10 μM MDHC
Experimental: As before, the T-cells were Molt3 cells prepared in RPMI 1640 growth medium according to Example 2. An approximate 7 ml aliquot of the growth medium was centrifuged (Jouan Model GT422 at 1400 rpm for 6.5 minutes), and the supernatant fluid was decanted. The pellet was resuspended in the supernatant fluid at titer of about 1×10^6 cells/ml, with the excess supernatant fluid being retained for future resuspension of the peptides.
A 228 nmol quantity of the LJCRF-1 (Sequence ID No. 6) peptide described in Table 1 was diluted with the supernatant fluid to a 500 μl final volume, and filtered in microcentrifuge filter tubes (0.22 micron filter; 3500 rpm for 6 minutes). Serial dilution of the filtered peptide with supernatant fluid was conducted to yield five 125 μl peptide solutions to give respective concentrations of about 115 μM, 230 μM, 460 μM, 910 μM, and 1.82 mM. At each concentration, a 125 μl portion of the cell suspension was pipetted into each 125 μl portion of the peptide solutions to yield combined samples having a 250 μl volume. The 250 μl samples were seeded into individual wells in a 48-well tissue culture grade plate (from Costar of Cambridge, Md.) and incubated at 37° C. for 30 minutes. Each sample received 5 μl of 2,5-methyl dihydroxy cinnamate ("MDHC") for a 10 μM final concentration, and was subsequently incubated for about 10 hours at 37° C. MDHC induces intercellular clumping of human T-cells (Tibbetts, Butler, and Benedict, submitted) by activating the LFA/ICAM binding interaction between respective cells.
Pictures were taken of five random fields per sample using an Olympus photomicroscope having a 0.8 mm field at 400×magnification, and a 3.2 mm field of view at 100×magnification. The amount of clumping observed was quantified by determining the mean number of clumps per field ± a standard error.
FIGS. 5, 6, and 7 replicate photographs taken from exemplary peptide assays. FIG. 5 is a photograph of the control sample having no peptides and no MDHC added, from which essentially no clumping of cells is observed. […] Any sample having a score of "+++" or "++++" is considered to have a significant ability to modulate T-cell binding interaction. This is similar to results obtained by incubating similarly treated cells with antibody against either LFA or ICAM.
The homotypic adhesion assay assesses the actual ability of a candidate peptide to modulate the ability of T-cells to adhere with one another.

Molt3 cells [2] = assay: Cell metabolic assay (MTT); type: cell-based
Experimental: After taking the photographs in Example 3 (and in some instances no photographs were taken), cell metabolic activity was assessed by an MTT assay. A 37.5 μl portion of MTT dye (purchased from SIGMA of St. Louis, Mo.), i.e., 3-[4,5-dimethyl thiazole-2yl]-2, 5- diphenyl tetrazolium bromide; thiazolyl blue) was added to each well, and incubated with the cells at 37° C. for about six hours. After incubation, a 250 μl quantity of a MTT solubilization solution (of a type that may be purchased from either Fischer Scientific of St. Louis, Mo. or BCD Labs of Lawrence, Kans.) was added to each well, and incubated with the cells at room temperature overnight. In the morning, the spectrophotometric absorption of each plate was determined at 570 nm in a microplate ELISA reader manufactured by Cambridge Technologies of Water-town, Mass., in order to assess cell viability as an indicator of potential peptide toxicity.

Molt3 cells [3] = assay: Homotypic adhesion assay (MDHC-induced clumping of T-cells); type: cell-based, human; settings: 10 μM MDHC, listed as LJCRF-2

T1 sequence (P20701 26-1170): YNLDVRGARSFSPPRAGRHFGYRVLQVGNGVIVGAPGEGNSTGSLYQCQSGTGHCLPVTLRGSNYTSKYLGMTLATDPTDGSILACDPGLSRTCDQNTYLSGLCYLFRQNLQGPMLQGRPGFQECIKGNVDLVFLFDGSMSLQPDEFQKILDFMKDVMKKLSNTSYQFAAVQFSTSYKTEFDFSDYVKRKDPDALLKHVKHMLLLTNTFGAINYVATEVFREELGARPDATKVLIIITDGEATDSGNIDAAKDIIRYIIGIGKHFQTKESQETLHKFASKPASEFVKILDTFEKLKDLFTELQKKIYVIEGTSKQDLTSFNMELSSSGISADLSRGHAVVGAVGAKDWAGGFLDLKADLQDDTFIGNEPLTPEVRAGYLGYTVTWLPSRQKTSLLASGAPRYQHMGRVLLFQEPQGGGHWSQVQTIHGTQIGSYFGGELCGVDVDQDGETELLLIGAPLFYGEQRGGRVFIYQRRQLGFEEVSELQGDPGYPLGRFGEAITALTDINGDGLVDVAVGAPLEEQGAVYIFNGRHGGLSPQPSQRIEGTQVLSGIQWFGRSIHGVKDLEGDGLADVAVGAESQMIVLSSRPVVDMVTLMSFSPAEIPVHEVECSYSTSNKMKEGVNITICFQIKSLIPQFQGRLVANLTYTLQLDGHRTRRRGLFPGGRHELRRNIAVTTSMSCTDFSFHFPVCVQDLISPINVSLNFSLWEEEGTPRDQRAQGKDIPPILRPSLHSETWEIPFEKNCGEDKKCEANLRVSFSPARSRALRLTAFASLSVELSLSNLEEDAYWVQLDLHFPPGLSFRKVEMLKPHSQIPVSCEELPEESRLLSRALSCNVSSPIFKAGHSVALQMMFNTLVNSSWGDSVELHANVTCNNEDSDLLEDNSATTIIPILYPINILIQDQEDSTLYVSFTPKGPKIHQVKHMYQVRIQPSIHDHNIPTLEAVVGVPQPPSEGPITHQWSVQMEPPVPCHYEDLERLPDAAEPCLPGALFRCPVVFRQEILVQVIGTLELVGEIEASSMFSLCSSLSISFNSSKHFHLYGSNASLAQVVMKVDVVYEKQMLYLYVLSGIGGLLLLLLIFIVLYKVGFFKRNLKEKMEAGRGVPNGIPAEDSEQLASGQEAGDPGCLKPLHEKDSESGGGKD
T1 sequence (P05107 23-769 partner): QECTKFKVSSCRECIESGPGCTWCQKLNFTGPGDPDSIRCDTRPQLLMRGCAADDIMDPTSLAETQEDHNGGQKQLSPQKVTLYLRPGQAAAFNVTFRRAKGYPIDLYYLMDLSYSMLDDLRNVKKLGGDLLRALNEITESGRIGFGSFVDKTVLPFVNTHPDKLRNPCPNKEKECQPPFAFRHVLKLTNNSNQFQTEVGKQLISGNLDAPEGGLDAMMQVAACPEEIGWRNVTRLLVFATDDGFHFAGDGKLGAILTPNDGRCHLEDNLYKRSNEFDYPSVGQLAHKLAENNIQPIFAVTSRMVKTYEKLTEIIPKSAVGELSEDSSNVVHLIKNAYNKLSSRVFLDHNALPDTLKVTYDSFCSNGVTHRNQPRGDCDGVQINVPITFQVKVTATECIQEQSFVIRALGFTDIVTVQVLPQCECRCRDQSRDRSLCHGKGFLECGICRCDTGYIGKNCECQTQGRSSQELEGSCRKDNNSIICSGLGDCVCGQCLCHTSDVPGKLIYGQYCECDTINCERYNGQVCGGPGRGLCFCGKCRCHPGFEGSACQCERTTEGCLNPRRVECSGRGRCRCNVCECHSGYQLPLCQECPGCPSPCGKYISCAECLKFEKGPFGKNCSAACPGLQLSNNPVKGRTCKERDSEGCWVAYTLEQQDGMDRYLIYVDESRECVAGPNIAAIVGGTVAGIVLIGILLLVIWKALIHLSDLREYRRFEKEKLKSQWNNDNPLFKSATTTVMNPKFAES

## SC-3-152: ICAM-derived short-chain peptide, Sequence ID No. 11; modulator peptide (DQPKLLGIETPLPKKELLLPGNNRK)
LFA-1 (CD11a); peptide 2275 μM
  Fluorescence, % change from control of the medium fluorescence intensity: +48 ± 8%
  effect on antibody binding: enhance such binding
LFA-1 (CD11a); peptide 4550 μM, negative = blocking
  Fluorescence, % change from control of the medium fluorescence intensity: -43 ± 7%
LFA-1 (CD11a); peptide 4550 μM
  effect on antibody binding: block antibody binding
Molt3 cells [1]; peptide 230 μM
  Homotypic Adhesion Amount: +++
  Homotypic Adhesion Effect: Enhance
Molt3 cells [1]; peptide 460 μM
  Homotypic Adhesion Effect: Enhance
Molt3 cells [1]; peptide 910 μM
  Homotypic Adhesion Amount: +++
  Homotypic Adhesion Effect: Block
Molt3 cells [1]; peptide 1820 μM
  Homotypic Adhesion Amount: ++++
  Homotypic Adhesion Effect: Block
Molt3 cells [2]; concentration not given
  MTT % Viability: 38%
Molt3 cells [2]; peptide 230 μM
  MTT % Viability: 38%
Molt3 cells [2]; peptide 460 μM
  MTT % Viability: 38%
Molt3 cells [2]; peptide 910 μM
  MTT % Viability: 38%
Molt3 cells [2]; peptide 1820 μM
  MTT % Viability: 43%
Molt3 cells [3]; peptide 460 μM
  Homotypic Adhesion Effect: binding enhancers
Molt3 cells [3]; peptide 910 μM
  Homotypic Adhesion Effect: blockers of intercellular adhesion
